Columns and labels:
[1] = biological target: RNA polymerase II (RNAPII);DSIF (SPT4/SPT5);NELF 3E mutant (Sus scrofa;human;human, UniProt A0A8D1DPV6;A0A4X1TVZ5;P19387;O15514;A0A4X1VTX4;P61218;P62487;P52434;P36954;P6287 …, ||K23E;K27E;K34E); assay: EMSA; 0.1 uM RNAPII, 0.4 uM DSIF, 0.4 uM NELF 3E; complex forms similar to wild type; EMSA: 20 mM Hepes-NaOH pH 7.5, 5 mM MgCl2, 5% glycerol (buffer J); final 75 mM NaCl, 50 mM KOAc, 0.33 uM Zn(OAc)2, 4 uM ZnCl2; 30 min at 4 C; native 3-8% Tris-acetate PAGE; settings: protein: native;recombinant;recombinant; tags: none;N-His SPT4 (His tag TEV-cleaved); C-Strep SPT5;NELF-C C-His6; NELF-E N-FLAG; copies: 1;1;1;1;1;1;1;1;1;1;1;1;1;1;1;1;1;1; label: Alexa Fluor 647 on primer RNA; template DNA, nontemplate DNA and primer RNA
[2] = biological target: RNA polymerase II (RNAPII) (Sus scrofa); assay: EMSA; 0.1 uM RNAPII; RNAPII-only EC; EMSA: 20 mM Hepes-NaOH pH 7.5, 5 mM MgCl2, 5% glycerol (buffer J); final 75 mM NaCl, 50 mM KOAc, 0.33 uM Zn(OAc)2, 4 uM ZnCl2; 30 min at 4 C; native 3-8% Tris-acetate PAGE; settings: protein: native; tags: none; copies: 1;1;1;1;1;1;1;1;1;1;1;1; label: Alexa Fluor 647 on primer RNA; template DNA, nontemplate DNA and primer RNA
[3] = biological target: RNA polymerase II (RNAPII);DSIF (SPT4/SPT5) (Sus scrofa;human, UniProt A0A8D1DPV6;A0A4X1TVZ5;P19387;O15514;A0A4X1VTX4;P61218;P62487;P52434;P36954;P6287 …, |); assay: EMSA; 0.1 uM RNAPII, 0.4 uM DSIF; lower mobility than RNAPII-only EC; EMSA: 20 mM Hepes-NaOH pH 7.5, 5 mM MgCl2, 5% glycerol (buffer J); final 75 mM NaCl, 50 mM KOAc, 0.33 uM Zn(OAc)2, 4 uM ZnCl2; 30 min at 4 C; native 3-8% Tris-acetate PAGE; settings: protein: native;recombinant; tags: none;N-His SPT4 (His tag TEV-cleaved); C-Strep SPT5; copies: 1;1;1;1;1;1;1;1;1;1;1;1;1;1; label: Alexa Fluor 647 on primer RNA; template DNA, nontemplate DNA and primer RNA
[4] = biological target: RNA polymerase II (RNAPII);DSIF (SPT4/SPT5);NELF wild type (NELF-A/B/C/E) (Sus scrofa;human;human, UniProt A0A8D1DPV6;A0A4X1TVZ5;P19387;O15514;A0A4X1VTX4;P61218;P62487;P52434;P36954;P6287 …, ||); assay: EMSA; 0.1 uM RNAPII, 0.4 uM DSIF, 0.4 uM NELF; complete shift; EMSA: 20 mM Hepes-NaOH pH 7.5, 5 mM MgCl2, 5% glycerol (buffer J); final 75 mM NaCl, 50 mM KOAc, 0.33 uM Zn(OAc)2, 4 uM ZnCl2; 30 min at 4 C; native 3-8% Tris-acetate PAGE; settings: protein: native;recombinant;recombinant; tags: none;N-His SPT4 (His tag TEV-cleaved); C-Strep SPT5;NELF-C C-His6; NELF-E N-FLAG; copies: 1;1;1;1;1;1;1;1;1;1;1;1;1;1;1;1;1;1; label: Alexa Fluor 647 on primer RNA; template DNA, nontemplate DNA and primer RNA

Measured: binding result

B1: DNA/RNA scaffold (EMSA) (mixed)
RNA: UUUUUAUCGAGAGGUAC
DNA 1: CCAAGATGTCAACTCTACCGATAAGCAGACGTACCTCTCGAT
DNA 2: CTGCTTATCGGTAGAGTTGACATCTTGG
binds: all assays above

Source: publication PMC11881899, “Structural insights into promoter-proximal pausing of RNA polymerase II at +1 nucleosome”
